# Reference: the supplement of paper PMC10065799, “High-throughput profiling of sequence recognition by tyrosine kinases and SH2 domains using bacterial peptide display” (eLife, 2023)
# Experiments:
# [1] = test system: c-Abl (mouse); assay: phosphorylation enrichment, bacterial display (enrichment ratio); higher = better substrate or ligand; peptides without Tyr show the background
# [2] = target: Hck (UniProt P08631); assay: as above
# [3] = target: MERTK (UniProt Q12866); assay: as above
# [4] = target: FGFR1 (UniProt P11362); assay: as above
# Chain of FGFR1 (P11362 whole entry, looked up): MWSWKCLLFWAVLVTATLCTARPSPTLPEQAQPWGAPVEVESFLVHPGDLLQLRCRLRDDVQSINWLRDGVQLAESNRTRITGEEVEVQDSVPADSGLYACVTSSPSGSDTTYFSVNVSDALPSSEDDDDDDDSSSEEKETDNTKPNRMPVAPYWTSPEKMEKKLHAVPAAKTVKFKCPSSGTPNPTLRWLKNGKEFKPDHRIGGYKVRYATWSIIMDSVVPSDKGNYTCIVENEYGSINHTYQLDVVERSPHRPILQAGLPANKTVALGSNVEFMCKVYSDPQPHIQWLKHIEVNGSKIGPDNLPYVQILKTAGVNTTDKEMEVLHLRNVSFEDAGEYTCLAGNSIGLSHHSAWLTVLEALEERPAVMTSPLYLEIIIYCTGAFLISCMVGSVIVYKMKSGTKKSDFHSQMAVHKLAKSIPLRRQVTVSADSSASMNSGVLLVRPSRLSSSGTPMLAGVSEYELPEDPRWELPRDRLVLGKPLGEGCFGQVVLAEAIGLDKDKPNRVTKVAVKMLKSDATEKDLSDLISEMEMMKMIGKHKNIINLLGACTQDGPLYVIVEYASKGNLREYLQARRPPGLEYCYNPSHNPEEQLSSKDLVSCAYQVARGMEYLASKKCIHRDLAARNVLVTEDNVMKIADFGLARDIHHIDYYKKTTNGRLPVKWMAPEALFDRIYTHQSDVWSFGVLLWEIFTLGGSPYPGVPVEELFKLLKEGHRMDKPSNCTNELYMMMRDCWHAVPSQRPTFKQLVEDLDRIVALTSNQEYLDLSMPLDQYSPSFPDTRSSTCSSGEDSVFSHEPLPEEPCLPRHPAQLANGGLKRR
# [5] = test system: c-Src; assay: as above
# [6] = target: Fyn (UniProt P06241); assay: as above
# Chain of Fyn (P06241 whole entry, looked up): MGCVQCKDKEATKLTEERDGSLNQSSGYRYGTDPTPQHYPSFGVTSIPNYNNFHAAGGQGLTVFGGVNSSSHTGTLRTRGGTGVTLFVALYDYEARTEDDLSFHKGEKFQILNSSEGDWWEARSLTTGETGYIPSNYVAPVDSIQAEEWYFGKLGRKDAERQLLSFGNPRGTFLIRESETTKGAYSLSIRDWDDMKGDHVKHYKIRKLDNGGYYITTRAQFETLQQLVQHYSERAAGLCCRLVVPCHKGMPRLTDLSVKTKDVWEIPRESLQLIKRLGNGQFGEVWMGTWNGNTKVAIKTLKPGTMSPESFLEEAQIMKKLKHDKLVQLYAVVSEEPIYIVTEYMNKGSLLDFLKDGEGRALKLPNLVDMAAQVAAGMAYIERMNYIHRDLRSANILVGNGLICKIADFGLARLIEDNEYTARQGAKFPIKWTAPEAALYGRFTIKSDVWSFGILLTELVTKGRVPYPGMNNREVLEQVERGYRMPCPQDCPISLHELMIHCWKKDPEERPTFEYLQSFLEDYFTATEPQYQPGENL
# [7] = target: EPHB1 (UniProt P54762); assay: as above
# Chain of EPHB1 (P54762 whole entry, looked up): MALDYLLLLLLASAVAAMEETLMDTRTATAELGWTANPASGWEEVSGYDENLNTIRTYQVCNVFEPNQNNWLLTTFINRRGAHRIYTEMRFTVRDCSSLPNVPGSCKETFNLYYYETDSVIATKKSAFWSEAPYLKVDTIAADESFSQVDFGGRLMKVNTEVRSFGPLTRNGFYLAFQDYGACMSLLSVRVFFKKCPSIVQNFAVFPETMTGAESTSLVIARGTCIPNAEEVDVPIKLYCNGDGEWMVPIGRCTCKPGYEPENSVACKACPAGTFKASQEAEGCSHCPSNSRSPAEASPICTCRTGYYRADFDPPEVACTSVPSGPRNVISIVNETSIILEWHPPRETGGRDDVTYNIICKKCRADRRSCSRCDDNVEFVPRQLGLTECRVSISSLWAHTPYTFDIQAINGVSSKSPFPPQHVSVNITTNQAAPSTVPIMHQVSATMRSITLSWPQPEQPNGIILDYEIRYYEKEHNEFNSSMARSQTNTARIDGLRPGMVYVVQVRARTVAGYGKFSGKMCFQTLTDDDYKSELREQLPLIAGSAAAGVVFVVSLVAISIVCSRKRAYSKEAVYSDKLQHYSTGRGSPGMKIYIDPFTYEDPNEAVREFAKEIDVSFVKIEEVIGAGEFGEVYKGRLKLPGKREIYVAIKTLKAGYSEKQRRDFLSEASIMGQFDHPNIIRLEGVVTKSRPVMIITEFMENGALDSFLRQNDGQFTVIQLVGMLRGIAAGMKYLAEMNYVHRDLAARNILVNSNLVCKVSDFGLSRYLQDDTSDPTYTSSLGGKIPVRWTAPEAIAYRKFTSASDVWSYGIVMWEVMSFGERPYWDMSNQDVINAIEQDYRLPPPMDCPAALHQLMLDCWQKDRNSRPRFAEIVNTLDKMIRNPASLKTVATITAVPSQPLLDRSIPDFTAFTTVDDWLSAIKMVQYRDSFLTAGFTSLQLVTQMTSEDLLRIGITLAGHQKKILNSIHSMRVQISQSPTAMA
# [8] = target: FGFR3 (UniProt P22607); assay: as above
# Chain of FGFR3 (P22607 whole entry, looked up): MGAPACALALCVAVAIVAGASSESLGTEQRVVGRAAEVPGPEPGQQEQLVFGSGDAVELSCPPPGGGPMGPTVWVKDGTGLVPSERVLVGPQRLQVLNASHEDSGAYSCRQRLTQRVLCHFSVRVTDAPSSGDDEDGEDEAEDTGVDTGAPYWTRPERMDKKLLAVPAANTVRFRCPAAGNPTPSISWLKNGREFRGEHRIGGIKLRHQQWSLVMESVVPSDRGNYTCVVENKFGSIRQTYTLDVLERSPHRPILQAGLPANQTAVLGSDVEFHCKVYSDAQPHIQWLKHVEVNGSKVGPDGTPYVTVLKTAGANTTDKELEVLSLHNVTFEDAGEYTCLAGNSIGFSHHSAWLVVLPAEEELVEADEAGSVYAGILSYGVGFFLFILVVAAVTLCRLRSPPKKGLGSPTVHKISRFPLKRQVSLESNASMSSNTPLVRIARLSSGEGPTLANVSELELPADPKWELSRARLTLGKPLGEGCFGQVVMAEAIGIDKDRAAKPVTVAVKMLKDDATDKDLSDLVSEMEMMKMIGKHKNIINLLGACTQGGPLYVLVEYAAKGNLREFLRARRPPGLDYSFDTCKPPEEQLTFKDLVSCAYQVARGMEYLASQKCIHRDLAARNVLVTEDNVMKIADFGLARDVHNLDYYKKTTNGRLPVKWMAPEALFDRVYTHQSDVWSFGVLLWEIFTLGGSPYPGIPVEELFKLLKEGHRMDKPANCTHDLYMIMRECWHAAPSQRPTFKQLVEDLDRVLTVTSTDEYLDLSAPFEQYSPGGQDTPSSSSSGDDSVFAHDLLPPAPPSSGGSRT
# [9] = target: Jak2 (UniProt O60674); assay: as above
# [10] = test system: AncSZ; assay: as above
# [11] = target: Fes (UniProt P07332); assay: as above
# Chain of Fes (P07332 whole entry, looked up): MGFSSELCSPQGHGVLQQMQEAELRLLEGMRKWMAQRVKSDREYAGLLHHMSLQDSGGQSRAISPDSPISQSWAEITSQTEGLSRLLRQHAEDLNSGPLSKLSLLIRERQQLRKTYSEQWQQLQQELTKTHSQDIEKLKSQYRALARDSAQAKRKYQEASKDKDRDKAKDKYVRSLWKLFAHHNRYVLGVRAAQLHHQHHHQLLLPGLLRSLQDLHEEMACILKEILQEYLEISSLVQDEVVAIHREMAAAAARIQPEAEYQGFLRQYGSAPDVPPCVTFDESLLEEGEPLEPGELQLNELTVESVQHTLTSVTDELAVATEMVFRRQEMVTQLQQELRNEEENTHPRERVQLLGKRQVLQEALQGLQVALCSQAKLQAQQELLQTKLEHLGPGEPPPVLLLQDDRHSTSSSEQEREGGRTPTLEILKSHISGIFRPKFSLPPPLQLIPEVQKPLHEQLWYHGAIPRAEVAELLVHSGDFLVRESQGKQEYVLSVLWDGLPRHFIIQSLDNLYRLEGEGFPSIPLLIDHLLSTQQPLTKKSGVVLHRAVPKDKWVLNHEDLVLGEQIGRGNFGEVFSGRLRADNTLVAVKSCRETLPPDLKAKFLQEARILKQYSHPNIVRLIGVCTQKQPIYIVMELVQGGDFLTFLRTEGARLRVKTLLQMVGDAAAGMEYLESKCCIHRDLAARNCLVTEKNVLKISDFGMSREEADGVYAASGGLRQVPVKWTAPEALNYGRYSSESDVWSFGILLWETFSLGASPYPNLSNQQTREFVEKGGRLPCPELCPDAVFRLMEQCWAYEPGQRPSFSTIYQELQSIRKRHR
# [12] = test system: Fer (mouse); assay: as above
# [13] = target: EPHB2 (UniProt P29323); assay: as above
# [14] = target: c-Src SH2; assay: SH2 binding enrichment of the phosphorylated peptide, bacterial display (enrichment ratio); higher = better substrate or ligand; peptides without Tyr show the background
# [15] = target: Grb2 SH2 (UniProt P62993); assay: as above
# [16] = target: SHP2-C SH2; assay: as above
# 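For SH2 binding enrichment of the phosphorylated peptide, bacterial display in this document: peptide library displayed on the E. coli surface as eCPX fusions, selected cells deep-sequenced, score is each peptide's frequency after selection divided by its frequency in the input.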
# 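For phosphorylation enrichment, bacterial display in this document: 11-residue human phosphosite peptides and single-mutation variants displayed on the E. coli surface, counted by deep sequencing, each peptide's frequency after selection divided by its frequency in the unselected input library; frequency after pTyr selection over input frequency; kinase dosed for 20-30% of maximal phosphorylation in three min.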
# Chain of Hck (P08631 whole entry, looked up): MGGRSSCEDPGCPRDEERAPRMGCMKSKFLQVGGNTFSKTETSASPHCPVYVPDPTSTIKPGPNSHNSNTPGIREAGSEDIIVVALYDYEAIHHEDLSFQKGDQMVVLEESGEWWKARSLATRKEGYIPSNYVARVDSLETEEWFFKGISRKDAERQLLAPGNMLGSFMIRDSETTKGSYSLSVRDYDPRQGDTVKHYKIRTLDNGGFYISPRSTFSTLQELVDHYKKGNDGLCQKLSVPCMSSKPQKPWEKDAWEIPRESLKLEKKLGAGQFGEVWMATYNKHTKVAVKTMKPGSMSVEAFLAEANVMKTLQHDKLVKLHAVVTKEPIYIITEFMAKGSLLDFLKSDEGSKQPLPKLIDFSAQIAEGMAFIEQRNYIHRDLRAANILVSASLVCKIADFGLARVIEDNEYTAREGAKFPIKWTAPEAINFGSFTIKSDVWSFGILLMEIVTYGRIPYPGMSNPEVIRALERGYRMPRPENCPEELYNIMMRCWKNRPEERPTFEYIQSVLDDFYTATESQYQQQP
SH2 binding enrichment [14],SH2 binding enrichment [15],SH2 binding enrichment [16],Sequence,phosphorylation enrichment [1],phosphorylation enrichment [2],phosphorylation enrichment [3],phosphorylation enrichment [4],phosphorylation enrichment [5],phosphorylation enrichment [6],phosphorylation enrichment [7],phosphorylation enrichment [8],phosphorylation enrichment [9],phosphorylation enrichment [10],phosphorylation enrichment [11],phosphorylation enrichment [12],phosphorylation enrichment [13]
0.426,0.667,0.627,ETMNKYHLSGR [MYEF2_Y164_D165H],0.398,0.467,0.385,0.432,0.375,0.343,0.332,0.367,0.422,0.539,0.53,0.357,0.355
0.421,0.87,0.586,CGTPEYLAPEI [PRKACA_Y205],2.42,0.633,0.463,0.718,0.535,0.531,0.893,1.06,1.51,2.65,1.57,0.679,0.757
0.476,0.794,0.619,AKFLGYPPPEI [KDR_Y357_YF],0.627,0.488,0.412,0.499,0.436,0.426,0.474,0.609,0.565,0.773,0.902,0.459,0.413
1.25,1.27,1.77,KWHREYNFKFV [RICTOR_Y835_S837F_YF],0.729,0.432,0.436,0.474,0.429,0.372,0.488,0.585,0.937,0.859,0.944,0.622,0.531
1.11,0.947,1.5,SGIFQYSIAKF [FOXL2_Y83_I84S_YF],0.573,0.569,0.469,0.64,0.5,0.478,0.555,0.638,0.756,0.889,0.969,0.467,0.525
0.525,0.818,0.634,LAIEGYVVVCK [RHO_Y136_R135G],0.991,0.747,0.528,0.707,0.526,0.604,0.75,1.02,1.09,1.5,1.41,0.459,0.826
0.421,0.661,0.49,IDAVCYYRMEN [NPHS2_Y194_I192V],1.22,0.862,0.845,3.5,2.48,0.888,0.865,3.39,4.36,1.96,1.51,0.729,0.745
0.521,1.04,0.667,DRLASYSDKVR [KRT10_Y160_L161S],0.42,0.387,0.43,0.454,0.445,0.41,0.366,0.419,0.503,0.578,0.553,0.322,0.365
0.557,1.62,1.84,LNNIIYRLERA [CUX2_Y1470_V1472L],1.31,1.01,1.1,0.907,3.45,2.59,1.24,1.19,1.27,1.67,1.37,0.812,1.37
0.477,0.648,0.57,AATTAYSKPKQ [MAP3K7_Y405_R410Q],0.121,–,–,–,0.063,–,–,–,0.257,–,–,–,–

# More lines, now with the values behind:
Sequence,SH2 binding enrichment [14],SH2 binding enrichment [15],SH2 binding enrichment [16],phosphorylation enrichment [1],phosphorylation enrichment [2],phosphorylation enrichment [3],phosphorylation enrichment [4],phosphorylation enrichment [5],phosphorylation enrichment [6],phosphorylation enrichment [7],phosphorylation enrichment [8],phosphorylation enrichment [9],phosphorylation enrichment [10],phosphorylation enrichment [11],phosphorylation enrichment [12],phosphorylation enrichment [13]
DFNPNYCFAGK [ALK_Y1096_YF],0.533,0.792,0.625,0.921,0.444,1.04,0.742,0.684,0.549,1.72,0.887,1.21,1.67,1.28,0.742,0.989
SQQTFYRVSNM [ABCD1_Y181_YF],0.525,0.82,0.762,0.492,0.513,0.388,0.433,0.408,0.409,0.31,0.575,0.546,0.564,0.741,0.39,0.507
KVPAIYGVDTR [CPS1_Y162],0.466,0.841,0.707,0.525,0.701,0.54,0.398,0.782,0.642,0.334,0.469,0.615,0.61,0.665,0.422,0.383
QSSALYEDCFL [ASS1_Y83_R86C_YF],0.831,1.13,0.794,1.15,2.28,4.12,0.852,4.69,3.02,10.4,0.785,1.96,1.92,2.83,16.4,7.25
INPIIYAFVGE [CCR5_Y297],0.46,0.776,0.6,10.4,6.19,7.72,3.48,4.84,6.13,10.7,2.75,1.03,1.17,2.02,6.77,9.51
YEHVGYTTLNR [CHN1_Y148],16.5,0.904,19.4,1.01,2.79,4.18,0.725,0.655,0.657,0.616,0.597,0.725,0.72,0.658,4.18,0.758
DMGAQYAAASP [ARID1B_Y483],0.63,0.67,0.647,0.652,0.462,0.434,0.48,0.504,0.411,0.486,0.584,0.653,0.647,0.71,0.652,0.552
LVKDGYQTAQP [CSF1R_Y873_M875T],1.35,0.909,0.307,0.544,–,–,–,1.29,–,–,–,1.27,–,–,–,–
